Paper PMC6768651, “A ubiquitin-like domain controls protein kinase D dimerization and activation by trans-autophosphorylation” (The Journal of Biological Chemistry, 2019)

B1: DKF-1 ULD–C1a (DKF-1^1–151) [C. elegans] / itself (parent)
chain: MDGSQGSTDYGDHVVLRYGGTREMVPLIRHEQMLDMLMERARQIVQGFGNLDTRNMYLFRHEYNSPTLLYPITSASQITSGSILEIILVDRTEAAVIPHVVEPESYMRPTFCDFCGEMLTGLMRQGVKCKNCNGNFHKRCSNAARNNCGAP
B2: DKF-1 ULD (DKF-1^1–94) [C. elegans] / itself (parent)
chain: MDGSQGSTDYGDHVVLRYGGTREMVPLIRHEQMLDMLMERARQIVQGFGNLDTRNMYLFRHEYNSPTLLYPITSASQITSGSILEIILVDRTEA

Legend:
Test in all cases: SEC-MALS (static light scattering)
Conditions in all cases: with itself
itself [1] = variants of: B1
itself [2] = variants of: B1; remark: listed apart in the source
itself [3] = variants of: B2; remark: listed apart in the source
itself [4] = variants of: B2; remark: listed apart in the source

screen value (itself [1]) | screen value (itself [2]) | screen value (itself [3]) | screen value (itself [4]) | Variant
1.09 | 18.7 kDa |  |  | chain 1 F59E
 |  | 1.04 | 11.3 kDa | chain 1 F59E
